Measured values published in paper PMC13185593.

System: HuR
Test: SPR
Conditions: SPR: 25 mM Tris pH 7.5, 100 mM KCl, 7 mM b-mercaptoethanol, 10% glycerol, 25 C, UV crosslinking: 5 mM HEPES pH 7.6, 25 mM KCl, 2 mM MgCl2, 3.8% glycerol

Row | Substance | Kd
1 | SARS-CoV-2 5'-UTR G210U+C241U, biotin (SPR) | 72.9 nM
2 | SARS-CoV-2 5'-UTR C241U, biotin (SPR) | 339 nM
